Measured values published in patent KR20150063728A (dated 2015).

Assays:
[1] = target: T1, FLAG-Tagging 된 hVEGF-C (Accession # P49767) (human, UniProt P49767 103-227, limits assumed); assay: competitive ELISA: scFv inhibits FLAG-hVEGF-C binding to coated hVEGR-R3-Fc
T1 construct: also called FLAG-Tagging 된 VEGF-C; not shown: FLAG tag
T1 sequence (looked up): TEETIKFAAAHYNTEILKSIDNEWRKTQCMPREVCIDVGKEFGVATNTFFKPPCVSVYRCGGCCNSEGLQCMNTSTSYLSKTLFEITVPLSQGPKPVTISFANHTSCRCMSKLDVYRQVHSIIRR

[2] = target: T2, 인간 VEGF-C 폴리펩타이드 (Human VEGF-C; R&D systems; Accession # P49767) (human, UniProt P49767 103-227); assay: ELISA, coated human VEGF-C, scFv detected with anti-HA-HRP; 50% binding concentration (Kd)
T2 construct: Bought; also called hVEGF-C
T2 sequence (looked up): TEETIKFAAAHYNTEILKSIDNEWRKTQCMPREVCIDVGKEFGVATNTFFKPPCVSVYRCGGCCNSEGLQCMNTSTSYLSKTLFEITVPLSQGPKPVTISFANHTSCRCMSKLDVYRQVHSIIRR

IC50 [1]: 33.4 nM | Kd [2]: 26.2 nM
B1: SAIT-VEGFC-AB-4A2 (scFv 형태의 항-VEGF-C 항체) (scFv, V domains shown)
VH: EVQLLESGGGLVQPGGSLRLSCAASGFTFSSYDMSWVRQAPGKGLEWVSAISYDNGSTYYADSVKGRFTISRDNSKNTLYLQMNSLRAEDTAVYYCARDPYLARLNTFDYWGQGTLVTVSS
VL: QSVLTQPPSASGTPGQRVTISCSGSSSNIGSNNVSWYQQLPGTAPKLLIYYNSHRPSGVPDRFSGSKSGTSASLAISGLRSEDEADYYCATWDSSLNGYVFGGGTKLT
notes: Tested as library scFv (Ni-NTA purified, anti-HA detection)
